Reference: a protein production outcome set (Wang et al. 2014)

Assay: label from the status in PepcDB records

Row | Sequence | protein production
1 | MKSFFSIFGDPSVTSVAIGKFDGMHLAHQRLFSYLDEGGAILTVDAQRGNLTPGEYKREFTPFPLYSIPLGKIKHLSGERFIYMLKKAFPNLTKVVVGYDFRFGKNRAFGVEELRGYFAGEVVVVPEVFHRGHSVHSEAIRELIAQGEMNLAGELLGRD | failed
2 | MKSFVATVLVALLFIVALVFGARNEQVVTISYFVAQGEYRLPVVLAVVFFTGFMLSWLVASYYIVRLKLALAATRKKLTLQTAKKPQGVDA | failed
3 | MKSGVIPSSAVGQKINEWYRYIRTFSVPDAEVLKAEIQQELKHMQHDSNLLLYYSLMEFRHQLMLDYLEPLEKLNIEDQPSLSELSRNIDSNQADLKGLLDYYVNFFRGMYEFDKREFISAITYYKQAEKKLSFVADHIERAEFYFKIAEAYYYMKQTYFSLINIKNAYEIYVEQETYNVRIIQCHFVFGVNLMDERNFEQAARHFKLALNMAQAEQKAQLVGRAYYNLGLCYYNQDLLDPAIDYFEKAVSTFESSRIVNSLPQAYFLITLIYYKQGKHDKASEYHKRGYEYAKETDDADYAVKFEFLQSLYLDQPNEEGIERCFQYLKNKNMYADIEDLALEVAKYYYEQKWFKLSASYFLQVEEARKQIQRSEGLYEIEI | failed
4 | MKSIEKDKYQDIRDAVRSLCSEFDDKYHRKIDEAKAYPEEFVNKLTKAGWLAALIPEEFGGSGLGLTEASIIMEEINRSGGNSGACHGQMYNMNTLLRHGSDKQKEFWLPRIATGEWRLQSMGVTEPTAGTDTTRIKTTAVKREDRYVINGQKVWISRVQHSDWMILLVRTTPLANVKRKSEGMSIFMVDIKEAMKNGMTVRPIPNMVNHETNELFFDNLEIPEENLIGEEGMGFHYILDGLNAERTLIAAECIGDGYWFMDRVTRYTCEREVFGRPIGQNQGVQFPIAEAFIAVEAANLMRFKACELFDQHLDCGAQANMAKYLAAKASWEAANACLQFHGGYGFACEYDIERKFRETRLYQVAPISTNLILSYIAEHVLEMPRSF | failed
5 | MKSILEQLSSMTVVVADTGDLDSIKKFQPRDATTNPSLILAAAKNPDYVKLIDKAIESSENTLPNGFSEIELIKETVDQVSVFFGKEILKIISGRVSTEVDARLSFDTEATVKKARKLINLYKNFGIEKERILIKIAATWEGIKAAEILEKEGIKCNLTLLFNFCQAVTCANANITLISPFVGRILDWHKAKTGKTSFIGAEDPGVISVTQIYKYFKEKGFKTEVMGASFRNLDEIKELAGCDLLTIAPKFLEELKREKGVLIRKLDASTKINNSIDYKFEEKDFRLSMLEDQMASEKLSEGITGFSKAIEELEELLIERLSEMKNHKLISAN | not failed
6 | MKSKFFAQNRERLVNTLPDESITILFAGQAPHMSADAHYKFVPNRNFYYVTGIDEPNVIFMLKKFGNSVEETLFIEKSDPVMEKWVGKTVSNEEAEKISGIKKVIYLDSFEKTMSNIFFTENVKHLYLDLECREWKGTETKTLAFAKHVREQYPHVTIGNVYPNICELRVFKTDEEIEIIKEAIAVTKDGIYNVLKHAKADMMEYELEAQFDFTLKSSGIKHHAFNTILASGKNATVLHYEDNDAQIQNGDLVLLDLGAQKDYYNADISYTFPANGTFSSRQKQIYNIVLNALKETTEIIKPGLKFAALNEHAKKVLAEGCKAVGLIQEDEELSKYYYHGVSHFLGLDTHDVGTYKDRVLEEGMVITIEPGLYIEEESIGIRIEDDILVTKDGHENLSKDIIREVEEIEEFMRENNVNVKQDEVVTK | not failed
7 | MKSKNSLLLTTVFTLLVTITTSNVFAAETATVKADENSTDKKNVSKKSYRVSKKVPAMRNRVYSQLSRAQQLADDGDKIEGFEVLAEVEDRLNSLNSYERAMLFNFYGFMYYANEDITLAVDSFNKVIAETAIPDSLIISTLYSLAQLSMQQQHYKEALDYLTQWREINAKELTGTQEMLFAQVYYQDKDFVNSLKHSEMAISLVEAKNKHPKENWLTLQRATYYELKQPKQVTKVMEKLIRLYDKPQYWLQLSSMYGEIGEEDKQMAVMEAAYQAGYITKASDILTLSQLYLFHGAPFKSAAVLEDSIAQGSIFADEDNLSMLARAYLTAKEYDKATKVLVRVSDIAQSGKHDALLAQTYLNTEQWQAAINSSTLALARYAKHKENKGNQVNDIANMHLILGMANFNLKKFERSLTSFAKAAQFTSTKKTALQWGKYVEREQQHHKVQLAMLN | failed
8 | MKSLETMARYKKELTECARNLKLPFLAEHLDEILHEAQEKQQTYSEFLSTCLMRELRDKERRSYLTRLKFAGLPARYDLDLYDFSRTEGIDQRQMRELRELVWIRRTYNLLLVGDSGTGKTFIASGLIHEAVKAGYKAYLLTLEELFVCLKTKEISRPAMKTYKRIMKAQLLAIDDVTLFPLKGEDVLLLFKLVNCVQGKTSLIITASRDLTGWLEMAGDEVCAAALLDRLLYCCEIIRLSGKSYRMENRKTIFSNQQIGTASLEHHHHHH | failed
9 | MKSLLMRTGSMPVLQNRLISGGSSRKMTPISRTNSVESLSSYGERFAGGKISIEVKANVGMRRVLSESDVIRSERMLKRVGSKPSPARIPEDDEAGEEEIRFADGWGSMISGGLPVEEKCFTGGGVGGGSGYSGGYGNGGGGGYEDKSKIGDYYREMLRSNPNNSLLLMNYGKFLYEVEKDAEGAEEYYGRAILENPGDGEALSMYGRLIWETKRDEKRAQGYFDQAVNASPNDCMVLGSYARFMWEAEDDDDDDEEEEEEEWMAASPLMVSAV | failed
10 | MKSNDTSFRRYLCSASPRLRPALLAMLTVVLLAGCATADKHGLSPQQRSASDLADSEEIDPAARERISHALGRDADEGALRDALKQQPNNIDAAIPLARALLARNCPNDALEVLDGVLLATPGDLRALNAKAVVLDHEGRHQEAQELYRQALAAEPANPMLRNNFGLSLALQGKMDAGDASAAPQAGSRKALARSR | failed
11 | MKSNLFMKRKLEIGLSLLIGTSVFGGCNNDLAPIRQSQTFPPNLNAPTVFESFSPDSGGVKTQLIIRGQNFGTDTAYLKVTVNNKRAAIVGVADDVIYAIVPARADTGYVRLFVGKDDNVEEYASQTKFIYQFKRNVTTLMGRQGQSGRDDGPYAECKLQRPWFALADKDGALFFIDEGRGQNKNGALRRAQEGWVETLVQNSSGPFQSPTCLAFNPKQDTLYISNMSYGSDIKTSFNILYVTREGGFMDVKGLCKFEKAETQGLAVHPQTGEIFFCNKSGGYIYRFNGPDYEDYEPLFQINRADKIDTRMVFNPEGTALFVVVCNRHCIYKVPYNALTHTFGEPELFAGGWDESGYVNGSGVTARFDNPRQPAFDQDGNMFVPEYGRHTIRKITPTGEVSLYAGLPGQAGFTDGLPEKARFNKPECVTVYLDNSLYVADRDNHLIRRVTVE | failed
12 | MKSRTRWLTSEELVTLFEAMRQAPGFSVENGLSIKLLLLLAVRKGELIGARWSEFDLDKAVWYLPAERTKTESAIDIPLPPIAVEWLRELQRLAGVSKWVLPARKMQDRMIPHIAESTLSVALAKIKHGLEPFTIHDLRRTARTHFEALGVAPHIAERCLNHKIKGIEGIYNRHDYFEERKAALEAWAGLLLQIERGEADKVVPIRRAVATKQLEHHHHHH | failed
13 | MKSSDIDQDLFTDSYCKVCSAQLISESQRVAHYESRKHASKVRLYYMLHPRDGGCPAKRLRSENGSDADMVDKNKCCTLCNMSFTSAVVADSHYQGKIHAKRLKLLLGEKTPLKTTGLRRNYRCAICSVSLNSIEQYHAHLKGSKHQTNLKNK | failed
14 | MKSTAEDLINGEISSVGVYLYNKLKNYVFEKESSEKTAIRKADFGKIIEEKTDLEEFPAVSKEDIKAICEILYNSKDIEIIIKQLYVFQSDINKSLDEIKEDFVSLFPKTINLENGRINLETGERISFLLKIFEVLDEGIQTALNRAVDEGSSGASNALSNRRHFDMKNKLANGFKEVKKLINESSRAVQEKKIPTEKLPSLFISYAREDDEPFVEKLYQGLKEKGFEIWWDRTAMKNRGRTFLQEIRDAIEDSDLLIAVIGPKAIESDSVRYEWEHALLFSKGVIPVLRMGDYNLLLPEMSKLHCPDFREKRPYEEALEELIRLLKEPIPSLGPIIGIPSLPPNHLPRKNDLNIIKEIILADTVKPVVITSTKQVTALQGMGGMGKSVLSAAFARSAETRRAFYDGIFWITVGLEASESDASGNMRLIGTNLGDDPVNYSSKKEAEASLSKMLSDKVCLIILDDVWKVPQATPFFNALGSRCRLLITTRNDDVVTSLGAQKHEIKVLGKPEALKLLANWCEQEIDSLTSKAAEVARECGYLPLALSICGAMAKSGISWTYILEALQEADLEFIEAQLPNYPDPNVGRALKVSVDFLSLEDPNAVMRYQELVIFPEDELVPETTIAMLWEHTGNLKRRNVEKLLTKLKDRSLLRLDGEAPNRLISLHDLQLDYLRATVGDLTSLHNKLLAAYGKECGNKWSNGSEDGYFFEHLAYHMKEAGRREELHKLLLDFEWMCKKIKCVRLMQEKDGKGIPDLNSLLHDYEFLSNEPKIELVKEAIQLSFDIIAKDEAQFSGQLIGRLQVFNQNEEIRLLLDQATQWKEEDVRLIPLQPCLKPPGGSLKRTFKAHAHPINDVVITSNGKVAISASTDKTIRIWDLNEWIEKGTLKGHLTPVTAIAVSLDGKYAASCSYHIMCLIGDNNIKVWDLEKREEKTTLKGHTHWVQTVAITPDGKYIVSGSLDKTIKFGI | failed
15 | MKSTLIDNFTLLLWASLMASSFVVSEQLLPYANPIASTALRFILATILMMPFIGRASIKQLNYKILLRYSVISLFLVLFFIGLFEALKTTNAMRTSVIYTLLPLISVVLTYIGLKFVTPNKQIAGFLIGTLGAIWVLVAFTQGKLVLIEWRLGDSIFLVACCCLALHVILIKKWATDVPPMLGAFYIMLLGSLILLPFLIFFGDLNNIAWHEDEFWKVLLYLTLFTTIATFFLQQHLLKKVGPNRLLGFTYLIPSIVLIPQGLANMSQLYSVVPGIMLTFLALYLISPKHQ | failed
16 | MKSVAGGLLRIGMRHDHDMTNRRLDAVILAGGCAHRLGGVAKANLRVGTRRLLDVVLDAVDGAREGLEGSNVVVARESVEVPWSVIRTMEDPPGSGPLAGIRAGLQALPPAQPDDLVLVCAVDSPGIGRSIRQLREALEDDPLNHFAGAVTFGGVPKPHRQLLQGLYRRVPLEASIAAADTVVNRSVHSVLGGLCLLDLPVEPEACRDLDTPGDVEWWLRHIGD | failed
17 | MKSVGQALENQGRVPRNTNDELIQMILADAQVAEFIKTHQLSQREINISMSKFNQFLIERQKFKNKDSQYIAKGYEPILVMNEGYADVSYLETRELIEAQKKQAISDRINLVNLPKSYRNIRMTDFDINNESRMKAMSQLLDFVETYPSYNHKGLYLYGDMGVGKSYLMAAMARELSERKGVSTTLLHFPSFAIDVKNAISSGTVKDEIDAVKSVPILILDDIGAEQATSWVRDEILQVILQHRMLEELPTFFTSNYSFNDLERKWANIKGSDETWQAKRVMERVRYLAIEFHLEGPNRR | failed
18 | MKSYLVGGAVRDALLGQPAGDCDWVVVGADPAHMKSLGFKPVGRDFPVFLHPKTGEEFALARTERKNGHGYRGFIVNADPTVTLEQDLQRRDFTINAIARDQTNGTLIDPYGGVNDLEQRVLRHISPAFAEDPLRVLRAARFMARLAPLGFSIAPETLAMMRQMAANGELNSLIPERIWKELSRSLTYTQPAAFLHTLRTVNALEVVLPELNALYGVPQHADYHPEIDTGLHQELVSDIAAKLAPGDMLIGFAALCHDLGKALTPRATWPHHPMHEQRGMAPTQQLSERLKVPRNYQQLALIACREHLNVHRLSKLHDNTVYELLQRCDAFRRPERIAQLAIVCEADYRGRYGHEDANYPQGQHLCRLHAAALAINARDLNRQDLHGTQIGEALAQARIRAISSAGVYDGGTGTNF | failed
